Source: patent publication US20240010742A1 (RESEARCH DEVELOPMENT FOUNDATION, published 2024)
Residue numbers refer to the chain shown, from its start.

T1: FcγRIIb (human, UniProt P31994 46-217, limits assumed, biotinylated (BLI, beads))
T1 construct: Recombinant receptor on biosensors, SPR or beads; also called FcgRIIb; 2b
T1 sequence (looked up): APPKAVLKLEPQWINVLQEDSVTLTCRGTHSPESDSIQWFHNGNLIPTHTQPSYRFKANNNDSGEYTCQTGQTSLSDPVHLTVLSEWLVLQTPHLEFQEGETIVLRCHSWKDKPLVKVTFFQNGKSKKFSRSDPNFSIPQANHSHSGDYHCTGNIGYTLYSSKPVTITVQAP

T2: FcγRIIb on cells (Raji cells; THP-1 cells) (human, UniProt P31994 43-310)
T2 construct: whole, on cells; also called FcγR2b; FcgR2b
T2 sequence (looked up): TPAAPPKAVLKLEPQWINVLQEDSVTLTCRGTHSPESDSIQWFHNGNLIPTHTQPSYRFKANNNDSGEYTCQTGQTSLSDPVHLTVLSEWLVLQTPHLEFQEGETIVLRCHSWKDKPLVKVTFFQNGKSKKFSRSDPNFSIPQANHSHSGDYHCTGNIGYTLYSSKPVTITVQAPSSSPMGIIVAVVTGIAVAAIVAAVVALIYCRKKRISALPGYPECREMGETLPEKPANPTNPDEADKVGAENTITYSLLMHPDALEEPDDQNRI

T3: FcγRIIaR131 (human, UniProt P12318 36-218, limits assumed, biotinylated (BLI, beads))
T3 construct: also called FcgRIIaR131; 2aR
T3 sequence (looked up): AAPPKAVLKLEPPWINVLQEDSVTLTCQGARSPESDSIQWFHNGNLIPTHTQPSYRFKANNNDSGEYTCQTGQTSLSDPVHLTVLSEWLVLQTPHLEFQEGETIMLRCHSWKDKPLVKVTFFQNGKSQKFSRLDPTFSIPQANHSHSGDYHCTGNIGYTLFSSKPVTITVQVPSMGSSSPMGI

T4: FcγRIIaH131 (human, UniProt P12318 36-218, limits assumed, biotinylated (BLI, beads))
T4 construct: also called FcgRIIaH131
T4 sequence (looked up): T3 sequence (looked up) with R132H

B1: Hex 2b18KQS-ST (glycosylated version of Hex 2b18KQS) (Fc fusion)
chain: EPKSCDKTHTCPPCPAPVDFRDPLVFLFPPKPKDTLMISRTPEVTCVVVDVSPEDPEVKFNWYVDGVEVHNAKTKPQEEQYNSTYRVVSVLTVCHQDWLNGKEYKCKVSNKLAPHPIIKTISKAKGQPREPQVYTLPPSRDELTKNQVSLTCLVKGFYPSDIAVEWESNGQPENNYKTTPPVLDSDGSFFLYSKLTVDKSRWQQGNVFSCSVMHEALHNHYTQKSLSLSPGKPTLYNVSLVMSDTAGTCY
notes: Ser298/Thr299 restored (glycosylated); forms a hexamer of Fc; also called glycosylated Hex 2b18KQS-ST Fc; hexameric 2b18KQS-ST Fc
B2: Hex 2b18K-ST (Fc fusion)
Fc-tailpiece fusion chain: B1 chain with S52D, Q77R, T248N
notes: also called Hex2b218K-ST; glycosylated hexameric construct of Fc variant 2b18K
B3: Hex 2b18KQS (aglycosylated hexameric Fc) (Fc fusion)
chain: B1 chain with S83G, T84A
notes: forms a hexamer of Fc; also called Hex 2b18KQS Fc; Hex-2bKQS

Assays:
[1] = target: T5, FcγRI (human, UniProt P12314 16-288, limits assumed, biotinylated (BLI, beads)); experiment: flow cytometry: hexameric Fc on FcγR-coated beads; y axis = mean fluorescence intensity
T5 construct: Recombinant receptor; also called FcgRI

[2] = target: T1, FcγRIIb; experiment: as above
[3] = target: T2, FcγRIIb on cells (Raji cells; THP-1 …); experiment: flow cytometry: hexameric Fc on Raji cells (only FcγR2b among Fc receptors), 40 to 0.039 ug/ml; upper panel fluorescence intensity (axis without title), lower panel percent positive; last bar of each group = Ramos cells at 40 ug/ml
Protocol: Error bars are standard error of the mean of triplicate samples. Statistical analysis was performed by one way ANOVA with Tukey s multiple comparisons test (***P 0.001, ****P 0.0001). […] The cell binding of hexameric Fc was tested with Raji cell which expresses only FcγR2b among Fc receptors (FIG. 13).

[4] = target: T6, FcγRIIIaV158 (human, UniProt P08637 17-208, biotinylated (BLI, beads)); experiment: flow cytometry: hexameric Fc on FcγR-coated beads; mean fluorescence intensity
T6 construct: also called FcgRIIIaV158; 3aV

[5] = target: T7, FcgRIIIbNA2 (human, UniProt O75015 17-200, limits assumed); experiment: as above
T7 construct: also called FcγRIIIb

[6] = target: T3, FcγRIIaR131; experiment: as above
[7] = target: T4, FcγRIIaH131; experiment: as above
[8] = target: T3, FcγRIIaR131; experiment: flow cytometry: hexameric Fc on FcγR-coated beads; y axis = mean fluorescence intensity
[9] = target: T6, FcγRIIIaV158; experiment: flow cytometry: hexameric Fc ('Hex 2b18KQS-1') on FcγR-coated beads; mean fluorescence intensity
[10] = target: T7, FcgRIIIbNA2; experiment: as above
[11] = target: T4, FcγRIIaH131; experiment: as above

T6 sequence (P08637 17-208 F176V limits assumed): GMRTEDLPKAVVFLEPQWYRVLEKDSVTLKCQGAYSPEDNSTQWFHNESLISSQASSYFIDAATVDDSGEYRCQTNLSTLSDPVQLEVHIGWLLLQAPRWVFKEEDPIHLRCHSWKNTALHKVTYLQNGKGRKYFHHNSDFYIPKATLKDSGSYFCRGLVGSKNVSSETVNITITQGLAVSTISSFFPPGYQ
T7 sequence (O75015 17-200 limits assumed): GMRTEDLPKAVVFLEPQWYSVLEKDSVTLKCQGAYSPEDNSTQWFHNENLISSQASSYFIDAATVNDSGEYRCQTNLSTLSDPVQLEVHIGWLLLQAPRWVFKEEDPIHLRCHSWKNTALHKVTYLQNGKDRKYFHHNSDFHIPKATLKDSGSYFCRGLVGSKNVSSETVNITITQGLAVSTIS
T5 sequence (P12314 16-288 limits assumed): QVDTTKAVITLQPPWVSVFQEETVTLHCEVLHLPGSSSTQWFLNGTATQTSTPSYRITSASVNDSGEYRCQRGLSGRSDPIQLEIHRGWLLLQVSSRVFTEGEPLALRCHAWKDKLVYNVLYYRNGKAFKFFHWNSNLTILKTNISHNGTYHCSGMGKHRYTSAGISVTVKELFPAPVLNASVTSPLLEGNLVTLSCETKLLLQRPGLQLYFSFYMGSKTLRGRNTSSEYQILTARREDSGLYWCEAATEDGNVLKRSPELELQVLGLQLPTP

Binder	binding result [1]	binding result [2]	binding result [3]	binding result [4]	binding result [5]	binding result [6]	binding result [7]	binding result [8]	binding result [9]	binding result [10]	binding result [11]
B1	binds	binds	binds	no binding	no binding	no binding	no binding				
B2	binds	binds		no binding	no binding		no binding	binds			
B3		binds	binds					binds	no binding	no binding	no binding
